Data as given in the supplement of paper PMC7125110.
± gives the standard error. This sample holds only a part of the variants without activity.

B1: glmS ribozyme (parent)
chain: AUAAAAGCGCCAGAACUACAGAAAUGUAGUUGACGAGGAGGAGGUUUAUCGAAUUUUCGGCGGAUGCCUCCAAA

Tests used:
Details in all cases: with glucosamine-6-phosphate
[1] = variants of: B1; test: self-cleavage kobs at 640 uM GlcN6P; higher = faster cleavage; RNA array
How it was run: (§1)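 Barcoded ribozyme variants were transcribed in situ on sequenced MiSeq chips by E. coli RNA polymerase. At 37 °C, a hybridised Cy3 probe tracked them while glucosamine-6-phosphate (40 μM to 10 mM) in HEPES/KCl/Mg(OAc)2 buffer flowed in and tiles were imaged over ~14 h. Per-tile medians of signals normalised to baseline and to non-cleaving reference variants were fit to one- or two-exponential decays, giving kobs. kcat and KM came from weighted Michaelis–Menten fits across concentrations.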

[2] = variants of: B1; test: self-cleavage kobs at 2500 uM GlcN6P; higher = faster cleavage; RNA array
How it was run: as §1

[3] = variants of: B1; test: self-cleavage kobs at 10000 uM GlcN6P; higher = faster cleavage; RNA array
How it was run: as §1

| Variant | self-cleavage kobs at 640 uM GlcN6P [1] | self-cleavage kobs at 2500 uM GlcN6P [2] | self-cleavage kobs at 10000 uM GlcN6P [3] |
| --- | --- | --- | --- |
| A14G G35A U45G G66U | < 1e-05 s⁻¹ | < 1e-05 s⁻¹ | – |
| G29U A42G G62C | < 1e-05 s⁻¹ | – | – |
| A33U C50G G51A | < 1e-05 s⁻¹ | – | – |
| U47A G66C | 0.000329 ± 7.2e-05 s⁻¹ | 0.000448 ± 0.00013 s⁻¹ | – |
| A14C G38U G44U C68G | < 1e-05 s⁻¹ | < 1e-05 s⁻¹ | – |
| C8U C16A G35C A36U C71G | < 1e-05 s⁻¹ | < 1e-05 s⁻¹ | – |
| A15U A39C A42U | < 1e-05 s⁻¹ | – | – |
| C10U G37C G60A | < 1e-05 s⁻¹ | – | – |
| U46C G51C C70U | < 1e-05 s⁻¹ | < 1e-05 s⁻¹ | – |
| C8U G13A G35A G38A G63A C68U | 0.001 ± 0.00031 s⁻¹ | – | – |
| C10A G13C C61G G66A C70A | 0.000102 ± 4.5e-05 s⁻¹ | – | – |
| U30G C50U A64G G66U | < 1e-05 s⁻¹ | < 1e-05 s⁻¹ | – |
| A15G A48U C50U G60A C68G | 0.000775 ± 0.00022 s⁻¹ | – | – |
| G29U U31G U47G C71A | 9.8e-05 ± 3.6e-05 s⁻¹ | – | – |
| G13C A33C | < 1e-05 s⁻¹ | < 1e-05 s⁻¹ | – |
| U30A G40A C50U | < 1e-05 s⁻¹ | < 1e-05 s⁻¹ | – |
| U49C A52G U65C | < 1e-05 s⁻¹ | – | – |

| Variant | self-cleavage kobs at 640 uM GlcN6P [1] | self-cleavage kobs at 2500 uM GlcN6P [2] | self-cleavage kobs at 10000 uM GlcN6P [3] |
| --- | --- | --- | --- |
| G32C A33U C68U C71G | < 1e-05 s⁻¹ | < 1e-05 s⁻¹ | – |
| C16U G43A C67G | 0.000254 ± 6.6e-05 s⁻¹ | – | 0.000419 ± 0.0001 s⁻¹ |
| A42U G51A G63U | < 1e-05 s⁻¹ | – | – |
| C8G G38U G41A U46G G59A | < 1e-05 s⁻¹ | < 1e-05 s⁻¹ | – |
| U47G A52U C68G | 0.000113 ± 4.9e-05 s⁻¹ | – | – |
| A33C G35A U46A | < 1e-05 s⁻¹ | – | – |
| C8G A14U A42G | < 1e-05 s⁻¹ | – | – |
| A33C G44C C58U C61A | < 1e-05 s⁻¹ | < 1e-05 s⁻¹ | – |
| U17G G63A | < 1e-05 s⁻¹ | < 1e-05 s⁻¹ | – |
| C10U G29U U55G | < 1e-05 s⁻¹ | < 1e-05 s⁻¹ | – |
| C11A A14G G41U G51C | < 1e-05 s⁻¹ | < 1e-05 s⁻¹ | – |
| C10U C16A A52U | < 1e-05 s⁻¹ | – | – |
| A12G A15U U45C G59A | < 1e-05 s⁻¹ | < 1e-05 s⁻¹ | – |
| G13C A14C G32U U69C | 8.31e-05 ± 2.1e-05 s⁻¹ | 7.03e-05 ± 2e-05 s⁻¹ | – |
| A12C C34A U69C | < 1e-05 s⁻¹ | – | – |
| A48G U55C G59C | < 1e-05 s⁻¹ | < 1e-05 s⁻¹ | – |
